The target in data set [1] is MS2 coat protein (NL_MS2_HIS) (UniProt P03612 SEQ:194-322). Nature of the data set: ELONA; RPB-ELISA; non-target RNA. To be noted: tags: N-term luciferase, C-term 6xHis; chain copies: 2; label: 5'-biotin.
For data set [2], the target named is T1, v3.1_PPR24 (Artificial Sequence).
T1 chain: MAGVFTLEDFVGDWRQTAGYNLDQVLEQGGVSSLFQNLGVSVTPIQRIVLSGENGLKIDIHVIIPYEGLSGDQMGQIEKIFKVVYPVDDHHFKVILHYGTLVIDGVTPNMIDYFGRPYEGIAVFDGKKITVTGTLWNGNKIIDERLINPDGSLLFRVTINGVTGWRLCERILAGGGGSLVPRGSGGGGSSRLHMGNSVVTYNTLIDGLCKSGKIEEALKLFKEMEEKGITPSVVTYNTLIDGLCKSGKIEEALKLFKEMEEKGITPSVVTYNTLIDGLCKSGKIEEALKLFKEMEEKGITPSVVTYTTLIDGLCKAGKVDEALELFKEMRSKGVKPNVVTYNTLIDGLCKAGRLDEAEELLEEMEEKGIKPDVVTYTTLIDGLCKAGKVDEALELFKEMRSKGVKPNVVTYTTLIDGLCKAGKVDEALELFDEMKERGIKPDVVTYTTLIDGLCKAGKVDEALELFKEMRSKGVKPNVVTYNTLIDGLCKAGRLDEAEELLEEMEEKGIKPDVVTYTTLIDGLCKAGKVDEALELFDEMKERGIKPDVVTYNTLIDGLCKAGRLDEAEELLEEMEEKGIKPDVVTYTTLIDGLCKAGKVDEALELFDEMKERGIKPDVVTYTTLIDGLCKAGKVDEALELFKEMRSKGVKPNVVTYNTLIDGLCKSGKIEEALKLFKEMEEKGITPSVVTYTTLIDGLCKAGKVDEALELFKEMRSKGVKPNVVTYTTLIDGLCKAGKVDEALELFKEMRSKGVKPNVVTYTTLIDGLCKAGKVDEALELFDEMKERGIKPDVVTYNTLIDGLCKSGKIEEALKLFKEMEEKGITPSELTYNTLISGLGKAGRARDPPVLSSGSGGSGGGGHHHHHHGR
In words: ELONA; RPB-ELISA. To be noted: tags: luciferase fusion; label: 5'-biotin.

Chain of MS2 coat protein (NL_MS2_HIS) (P03612 2-130): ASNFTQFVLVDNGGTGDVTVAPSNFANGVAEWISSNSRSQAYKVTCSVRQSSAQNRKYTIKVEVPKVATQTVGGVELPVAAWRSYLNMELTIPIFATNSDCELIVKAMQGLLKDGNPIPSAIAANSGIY

For the molecule GACAUGCUGGUGUAUCUUGUCUUUAGACUG (ssRNA) [RNA_51], the binding result in data set [1] was “no binding”.

Regarding GACAUGCCCCAUAGAUGUGACAAGCGACUG (ssRNA) [RNA_24], the binding signal in data set [2] is 5.5e+07 luminescence.

Values taken from patent publication US20220289795, “EFFICIENT METHOD FOR PREPARING PPR PROTEIN AND USE OF THE SAME” (EditForce, Inc., published 2022).
